Literature values as cited in PMC6962051.

Target: linear di-ubiquitin (Homo sapiens) (UniProt P0CG47)
Experiment: isothermal titration calorimetry

Sequence of NEMO CoZi (Q9Y6K9 258-350): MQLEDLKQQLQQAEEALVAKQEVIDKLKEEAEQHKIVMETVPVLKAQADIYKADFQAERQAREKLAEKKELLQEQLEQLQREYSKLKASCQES

NEMO CoZi (from UniProt Q9Y6K9)
Kd: 2400 nM
